Assay results published in US20120027687A1, “FATTY ACID PROTEIN KINASE C ACTIVATORS AND ANTICOAGULANT FOR THE TREATMENT OF STROKE” (priority 2010, published 2012).

System: ischemic stroke (MCAO)
Test: Transient focal ischemia (MCAO) model of stroke
Assay type: in vivo, rat
Conditions: rats; rTPA 6 hours after stroke, with or without bryostatin-1 2 hours later
Description: A transient animal model of focal ischemia was used for these experiments. The middle cerebral artery (MCA) was surgically dissected and occluded in anesthetized rats by ligature, followed by reperfusion after a defined period (about 2 hours). Animal models transient ischemia via occlusion of the MCA (MCAO) are described in, e.g., Sicard and Fisher, Exp. & Transl. Stroke Med. (2009), vol. 1, pp. 1-7.

B1: rTPA: recombinant tissue plasminogen activator, thrombolytic serine protease (protein, UniProt P00750 36-562, looked up)
Tissue-type plasminogen …: SYQVICRDEKTQMIYQQHQSWLRPVLRSNRVEYCWCNSGRAQCHSVPVKSCSEPRCFNGGTCQQALYFSDFVCQCPEGFAGKCCEIDTRATCYEDQGISYRGTWSTAESGAECTNWNSSALAQKPYSGRRPDAIRLGLGNHNYCRNPDRDSKPWCYVFKAGKYSSEFCSTPACSEGNSDCYFGNGSAYRGTHSLTESGASCLPWNSMILIGKVYTAQNPSAQALGLGKHNYCRNPDGDAKPWCHVLKNRRLTWEYCDVPSCSTCGLRQYSQPQFRIKGGLFADIASHPWQAAIFAKHRRSPGERFLCGGILISSCWILSAAHCFQERFPPHHLTVILGRTYRVVPGEEEQKFEVEKYIVHKEFDDDTYDNDIALLQLKSDSSRCAQESSVVRTVCLPPADLQLPDWTECELSGYGKHEALSPFYSERLKEAHVRLYPSSRCTSQHLLNRTVTDNMLCAGDTRSGGPQANLHDACQGDSGGPLVCLNDGRMTLVGIISWGLGCGQKDVPGVYTKVTNYLDWIRDNMRP
How did the “mortality 24 hours later” value turn out when B1 was run?
The value was 44%.
